Results published in article PMC9157457 (The Journal of Biological Chemistry, 2022).

Molecular target: the molecule itself
Experiment: cryo-EM structure

B1: Photobacterium phosphoreum LuxC (acyl-CoA reductase) (enzyme)
chain: IKKIPMIIGGAERDTSEHEYRELTLNSYKVSIPIINQDDVEAIKSQSVENNLNINQIVNFLYTVGQKWKSENYSRRLTYIRDLVRFLGYSPEMAKLEANWISMILSSKSALYDIVETELGSRHIVDEWLPQGDCYVKAMPKGKSVHLLAGNVPLSGVTSIIRAILTKNECIIKTSSADPFTAIALASSFIDTDEHHPISRSMSVMYWSHNEDIAIPQQIMNCADVVVSWGGYDAIKWATEHTPVNVDILKFGPKKSIAIVDNPVDITASAIGVAHDICFYDQQACFSTQDIYYIGDNIDAFFDELVEQLNLYMDILPKGDQTFDEKASFSLIEKECQFAKYKVEKGDNQSWLLVKSPLGSFGNQPLARSAYIHHVSDISEITPYIENRITQTVTVTPWESSFKYRDVLASHGAERIVESGMNNIFRVGGAHDGMRPLQRLVKYISHERPYTYSTKDVAVKIEQTRYLEEDKFLVFVP
B1 was tested, and the “stoichiometry N” value was 4.
